Assay [1] addresses T1, RARγ-V5/RXRα heterodimer (Homo sapiens, UniProt P13631). The experiment in a line: DNA modified immunoprecipitation, co-repressor N-CoR recruitment (Example 6). It counts as biochemical. As to conditions: ligand 1 μM.
Experimental: Immunoprecipitation with mouse anti-V5 antibody and Western analysis were conducted as set forth above.
Assay [2] deals with T2, RARα-V5/RXRγ/DR-5 ternary complex (Homo sapiens, UniProt P10276).
T2 construct: the nuclear receptor subunits used in the invention are full length nuclear receptor monomer subunits; expressed in transfected cells; host or cells: CV-1 (green monkey kidney), whole-cell lysate
T2 sequence (P10276 1-462): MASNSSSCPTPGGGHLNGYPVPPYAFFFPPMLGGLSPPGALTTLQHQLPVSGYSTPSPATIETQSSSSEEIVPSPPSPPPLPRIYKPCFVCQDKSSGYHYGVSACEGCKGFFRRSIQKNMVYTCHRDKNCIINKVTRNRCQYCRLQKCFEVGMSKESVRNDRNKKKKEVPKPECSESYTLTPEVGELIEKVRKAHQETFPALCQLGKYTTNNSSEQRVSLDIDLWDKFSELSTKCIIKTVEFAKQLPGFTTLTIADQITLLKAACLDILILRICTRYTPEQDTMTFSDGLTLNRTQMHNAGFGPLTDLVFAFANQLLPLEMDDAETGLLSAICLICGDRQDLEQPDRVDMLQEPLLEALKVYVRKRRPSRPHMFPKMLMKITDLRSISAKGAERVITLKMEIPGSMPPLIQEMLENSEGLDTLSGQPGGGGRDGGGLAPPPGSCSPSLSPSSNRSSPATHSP
T2 sequence (P28705 1-463 partner): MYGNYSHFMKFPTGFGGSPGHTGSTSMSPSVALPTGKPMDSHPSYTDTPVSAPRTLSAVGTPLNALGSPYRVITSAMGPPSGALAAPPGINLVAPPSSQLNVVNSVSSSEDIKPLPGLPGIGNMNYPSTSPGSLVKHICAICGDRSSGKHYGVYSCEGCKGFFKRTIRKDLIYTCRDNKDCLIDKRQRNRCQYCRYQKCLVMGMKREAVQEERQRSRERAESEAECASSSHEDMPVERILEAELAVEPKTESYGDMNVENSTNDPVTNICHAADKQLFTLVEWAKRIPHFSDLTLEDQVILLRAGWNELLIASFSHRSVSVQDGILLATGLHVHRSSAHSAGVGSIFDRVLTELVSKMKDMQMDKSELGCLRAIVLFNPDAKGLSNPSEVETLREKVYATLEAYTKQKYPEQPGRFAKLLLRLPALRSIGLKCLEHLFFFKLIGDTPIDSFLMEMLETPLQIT
The experiment in a line: LXD peptide competition of ATRA-induced co-activator recruitment (Example 7, FIG. 8A). The following applies: DR-5 RARE; for effect of peptide on ATRA-induced recruitment of SRC-1: SRC-1 peptides at 40 μl (so in the source); for effect of peptide on ATRA-induced recruitment of ACTR: ACTR peptides at 20 μl (so in the source). It counts as biochemical. An excerpt:
(§1) Nolte, R. T. et al., Nature 395:137-143 (1998). We addressed the importance of each of the three LXDs in mediating co-activator-receptor interaction using synthetic peptides comprising the LXD1, LXD2 or LXD3 amino acid sequences as competitors with SRC-1 in the DNA modified immunoprecipitation methods of the present invention. These peptides have the following amino acid sequences (with the characteristic LXXLL motif shown in bold):
(§2) Transfection, DR-5 oligonucleotide treatment, ligand treatment, immunoprecipitation and detection of associated co-factors were performed essentially as shown in the previous Examples. CV-1 cells were transfected with plasmids expressing either RARα/RXRγ-V5 or with RARγ/RXRα-V5. Synthetic LXD peptides were added to the cell lysate before the addition of retinoids at a concentration of 20 (ACTR) and 40 (SRC-1) […].

In a further assay the target is T3, RARγ/RXRα heterodimer (Homo sapiens, UniProt P13631).
T3 sequence (P13631 1-454): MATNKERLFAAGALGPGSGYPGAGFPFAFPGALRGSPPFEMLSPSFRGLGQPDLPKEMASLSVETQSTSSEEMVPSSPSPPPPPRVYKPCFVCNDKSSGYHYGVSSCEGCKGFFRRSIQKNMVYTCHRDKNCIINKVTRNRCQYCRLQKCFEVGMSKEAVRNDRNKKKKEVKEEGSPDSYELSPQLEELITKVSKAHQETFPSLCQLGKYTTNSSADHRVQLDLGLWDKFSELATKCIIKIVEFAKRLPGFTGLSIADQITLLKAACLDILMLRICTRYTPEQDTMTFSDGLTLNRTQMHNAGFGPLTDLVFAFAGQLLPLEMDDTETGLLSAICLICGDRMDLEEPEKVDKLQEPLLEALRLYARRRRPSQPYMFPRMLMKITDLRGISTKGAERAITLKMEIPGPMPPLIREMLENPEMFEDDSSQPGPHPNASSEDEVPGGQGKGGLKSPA
T3 sequence (P19793 1-462 partner): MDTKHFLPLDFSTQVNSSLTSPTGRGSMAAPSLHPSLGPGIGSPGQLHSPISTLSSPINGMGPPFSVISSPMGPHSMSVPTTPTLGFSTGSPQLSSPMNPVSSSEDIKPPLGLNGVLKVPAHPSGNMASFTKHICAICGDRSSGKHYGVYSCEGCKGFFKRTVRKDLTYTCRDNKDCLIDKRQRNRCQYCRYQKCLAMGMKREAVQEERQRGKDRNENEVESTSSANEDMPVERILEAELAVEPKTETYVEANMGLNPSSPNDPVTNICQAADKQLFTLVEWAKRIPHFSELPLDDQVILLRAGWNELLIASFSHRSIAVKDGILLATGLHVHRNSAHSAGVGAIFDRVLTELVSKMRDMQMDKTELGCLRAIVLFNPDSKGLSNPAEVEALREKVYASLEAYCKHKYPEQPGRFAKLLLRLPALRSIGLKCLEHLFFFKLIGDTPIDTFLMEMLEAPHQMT
As to the kind of experiment: LXD peptide competition of ATRA-induced co-activator recruitment (Example 7, FIG. 8B). The following applies: DR-5 RARE, compared with the RARα/RXRγ experiment. It counts as biochemical.
Source text: as §1, §2

Assay [3] concerns the target RARα/RXR heterodimer bound to a DR-5 retinoic acid receptor response element (Example 9) (human) (UniProt P10276). The experiment in a line: DNA dependent co-IP with DR-5 RARE, Western anti-ACTR; 1 uM ligand AGN196412.
For assay [4], the target named is RARβ-V5/RXRα heterodimer (human) (UniProt P10826). As to the kind of experiment: anti-V5 co-IP from CV-1 lysate, Western anti-SRC-1; 1 uM AGN 194204 with DR-5 RARE against 1 uM TTNPB.
The target of assay [5] is RARα/RXR heterodimer bound to a DR-5 retinoic acid receptor response element (Example 9) (human) (UniProt P10276). As to the kind of experiment: DNA dependent co-IP with DR-5 RARE, Western anti-SRC-1; 1 uM ligand AGN194365.
For assay [6] the target is unchanged. As to the kind of experiment: DNA dependent co-IP with DR-5 RARE, Western anti-SRC-1; 1 uM ligand AGN194794, 196382 or 196412 (which ligand gives which end is not told).
The target of assay [7] is T1, RARγ-V5/RXRα heterodimer. The experiment in a line: anti-V5 co-IP from CV-1 lysate, Western anti-N-CoR; DR-5 RARE, 1 uM ligand.

RARβ-V5/RXRα heterodimer (human), sequence (P10826 other isoform, or with tags, fused parts or gaps): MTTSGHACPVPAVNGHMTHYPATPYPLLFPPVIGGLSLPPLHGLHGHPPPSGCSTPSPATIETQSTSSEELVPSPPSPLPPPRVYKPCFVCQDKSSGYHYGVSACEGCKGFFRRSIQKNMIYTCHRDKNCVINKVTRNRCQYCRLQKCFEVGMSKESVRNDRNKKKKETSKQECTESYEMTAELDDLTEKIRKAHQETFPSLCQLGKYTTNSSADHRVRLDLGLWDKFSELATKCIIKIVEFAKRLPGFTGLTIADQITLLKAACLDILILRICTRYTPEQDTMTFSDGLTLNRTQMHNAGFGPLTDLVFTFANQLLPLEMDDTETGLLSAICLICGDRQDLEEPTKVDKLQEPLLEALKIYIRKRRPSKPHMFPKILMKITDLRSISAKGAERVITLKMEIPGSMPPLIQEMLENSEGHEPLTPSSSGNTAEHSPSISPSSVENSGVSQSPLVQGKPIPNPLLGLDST

Regarding `Cc1ccc(C2CCC(C)(C)c3ccc(C#Cc4ccc(C(=O)O)cc4)cc32)cc1` (centres unmarked) [AGN 193109], the “N-CoR recruitment compared to AGN 193840” value on RARγ-V5/RXRα heterodimer [1] (with DR-5 RARE) is given as “approximately two-fold increase”. Further, the N-CoR recruitment result on RARγ-V5/RXRα heterodimer [1] (with DR-5 RARE 0.5 μg/ml) was “led to N-COR recruitment”; at RARγ-V5/RXRα heterodimer [1] (with G-5-G DNA element instead of DR-5 RARE) it was “failed to result in the detection of co-repressor”.
For the compound `CC1(C)CCC(c2ccc(F)cc2)c2cc(C#Cc3ccc(C(=O)O)cc3)ccc21` (centres unmarked) [AGN 193840], the N-CoR recruitment entry at RARγ-V5/RXRα heterodimer [1] (with DR-5 RARE 0.5 μg/ml) is given as “led to N-COR recruitment”.
Regarding “KESKDHQLLRYLLDKDEKDLRS (Nuclear co-activator LXD-containing peptide) [SRC-1 LXD3]”, the “effect of peptide on ATRA-induced recruitment of SRC-1” value in assay [2] was “completely abolished”.
As to “KYSQTSHKLVQLLTTTAEQQLR (Nuclear co-activator LXD-containing peptide) [SRC-1 LXD1]”, the “effect of peptide on ATRA-induced recruitment of SRC-1” value in assay [2] was “no effect”. For the same compound, the “amount of SRC-1 associated in the presence of peptide” value with RARγ/RXRα heterodimer is recorded as “somewhat greater”.
Turning to “LESKGHKKLLQLLTCSSDDRGH (Nuclear co-activator LXD-containing peptide) [ACTR LXD1]”, the “effect of peptide on ATRA-induced recruitment of ACTR” value in assay [2] is listed as “abolished”.
Still for that read-out and setting: then “LLQEKHRTLHKLLQNGNSPAEV (LLQEKHRILHKLLQNGNSPAEV; Nuclear co-activator LXD-containing peptide) [ACTR LXD2]”, with “abolished”.
Compound “nuclear receptor co-activator ACTR (other; other documents disagree on this pair)” yielded a % recruitment relative to TTNPB in assay [3] of 65%.
“nuclear receptor co-activator SRC-1, endogenously expressed by CV-1 cells” showed an amount of SRC-1 detected compared to treatment with TTNPB in assay [4] of 30%.
In assay [5], “nuclear receptor co-activator SRC-1, endogenously expressed by CV-1 cells (other; other documents disagree on this pair)” showed a % recruitment compared to TTNPB of 65%. Further, the % recruitment relative to TTNPB in assay [6] was 23 to 32%.
Regarding nuclear receptor co-repressor N-CoR, the fold increase in N-CoR recruitment with AGN 193109 compared to AGN 193840 in the assay with RARγ-V5/RXRα heterodimer [7] is 2 fold.

These data come from patent US20020037514A1, “Identification of nuclear receptor-dependent coregulator recruitment” (priority 2000, published 2002).
